B1: CCNC (parent)
chain: QSSHYLQWILDKQDLLKERQKDLK

Variants of: B1
Test: protein stability index of a GFP-peptide fusion (GPS, HEK-293T) (PSI 1-6); higher = more stable
Conditions: c terminus: a fixed tail appended
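Also: lentivirally expressed fusions sorted by FACS into six bins by GFP to DsRed ratio, PSI derived from sequencing read proportions per bin multiplied by bin number.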

Protein stability index, by site and new letter:
H4: E 3.5 | I 2.09 | A 3 | V 2.5 | L 2.34 | K 2.54 | Q 2.52 | S 3.2 | W 2.65 | P 2.72 | N 3.27 | F 1.88 | D 3.55 | T 2.79 | G 3.03 | R 2.39 | M 3.97 | Y 3.21 | C 2.22
L10: A 4.22 | H 3.52 | V 3.09 | I 2.97 | Y 3.42 | S 4 | G 3.76 | C 3.86 | E 4.29 | W 2.54 | K 3.6 | D 4.49 | P 4.58 | R 3.61 | N 4.17 | T 3.34 | Q 4.22 | F 3.4 | M 3.41
I9: R 4.12 | P 4.6 | T 3.74 | A 4.27 | C 3.9 | Y 3.32 | E 4.87 | M 3.53 | G 3.67 | L 3.36 | V 3.09 | Q 4.21 | W 3.83 | K 4.09 | F 3.98 | D 4.82 | H 3.64 | N 4.01 | S 4
W8: P 4.29 | H 4.03 | C 3.89 | V 3.52 | Y 4.5 | L 3.41 | D 4.55 | M 4.16 | I 3.16 | S 4.09 | R 4.18 | T 4.39 | F 3.77 | G 3.94 | Q 3.96 | A 4.42 | E 4.35 | N 4.46 | K 3.87
D11: G 2.75 | E 3.4 | M 2.36 | F 2 | S 3 | H 2.86 | Q 3.39

Reference: the supplement of paper PMC10567573
